Measurements as given in PMC3543496 (FEBS letters, 2012).
Where two headings read alike, the source gives them in different places.

Legend:
SEC-MALS [1] = molecular target: the molecule itself; experiment: SEC-MALS
SEC-MALS [2] = molecular target: the molecule itself; experiment: SEC-MALS; remark: listed apart in the source

Protein	stoichiometry N (SEC-MALS [1])	stoichiometry N (SEC-MALS [2])
WT clathrin hub (bovine clathrin heavy chain aa1074-1675) (domain or fragment, UniProt P49951 1074-1675, looked up) KFDVNTSAVQVLIEHIGNLDRAYEFAERCNEPAVWSQLAKAQLQKGMVKEAIDSYIKADDPSSYMEVVQAANTSGNWEELVKYLQMARKKARESYVETELIFALAKTNRLAELEEFINGPNNAHIQQVGDRCYDEKMYDAAKLLYNNVSNFGRLASTLVHLGEYQAAVDGARKANSTRTWKEVCFACVDGKEFRLAQMCGLHIVVHADELEELINYYQDRGYFEELITMLEAALGLERAHMGMFTELAILYSKFKPQKMREHLELFWSRVNIPKVLRAAEQAHLWAELVFLYDKYEEYDNAIITMMNHPTDAWKEGQFKDIITKVANVELYYRAIQFYLEFKPLLLNDLLMVLSPRLDHTRAVNYFSKVKQLPLVKPYLRSVQNHNNKSVNESLNNLFITEEDYQALRTSIDAYDNFDNISLAQRLEKHELIEFRRIAAYLFKGNNRWKQSVELCKKDSLYKDAMQYASESKDTELAEELLQWFLQEEKRECFGACLFTCYDLLRPDVVLETAWRHNIMDFAMPYFIQVMKEYLTKVDKLDASESLRKEEEQATETQPIVYGQPQLMLTAGPSVAVPPQAPFGYGYTAPAYGQPQPGFGYSM	3	–
C1573A clathrin hub (bovine clathrin heavy chain aa1074-1675, C1573A) (domain or fragment, UniProt P49951 1074-1675, looked up) KFDVNTSAVQVLIEHIGNLDRAYEFAERCNEPAVWSQLAKAQLQKGMVKEAIDSYIKADDPSSYMEVVQAANTSGNWEELVKYLQMARKKARESYVETELIFALAKTNRLAELEEFINGPNNAHIQQVGDRCYDEKMYDAAKLLYNNVSNFGRLASTLVHLGEYQAAVDGARKANSTRTWKEVCFACVDGKEFRLAQMCGLHIVVHADELEELINYYQDRGYFEELITMLEAALGLERAHMGMFTELAILYSKFKPQKMREHLELFWSRVNIPKVLRAAEQAHLWAELVFLYDKYEEYDNAIITMMNHPTDAWKEGQFKDIITKVANVELYYRAIQFYLEFKPLLLNDLLMVLSPRLDHTRAVNYFSKVKQLPLVKPYLRSVQNHNNKSVNESLNNLFITEEDYQALRTSIDAYDNFDNISLAQRLEKHELIEFRRIAAYLFKGNNRWKQSVELCKKDSLYKDAMQYASESKDTELAEELLQWFLQEEKRECFGACLFTAYDLLRPDVVLETAWRHNIMDFAMPYFIQVMKEYLTKVDKLDASESLRKEEEQATETQPIVYGQPQLMLTAGPSVAVPPQAPFGYGYTAPAYGQPQPGFGYSM	~2	~3
